Common to all, as to test: saturation binding ELISA (immobilized ligand)
For orientation: ELISA stands for enzyme-linked immunosorbent assay.

Experiment [1] addresses CML.
The target of experiment [2] is T1, S100b (UniProt P04271 2-92).
T1 chain: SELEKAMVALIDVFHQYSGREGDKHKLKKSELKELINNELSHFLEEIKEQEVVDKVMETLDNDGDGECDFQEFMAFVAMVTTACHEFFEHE

In experiment [3] the target is T2, amphoterin (UniProt P09429 1-215).
T2 chain: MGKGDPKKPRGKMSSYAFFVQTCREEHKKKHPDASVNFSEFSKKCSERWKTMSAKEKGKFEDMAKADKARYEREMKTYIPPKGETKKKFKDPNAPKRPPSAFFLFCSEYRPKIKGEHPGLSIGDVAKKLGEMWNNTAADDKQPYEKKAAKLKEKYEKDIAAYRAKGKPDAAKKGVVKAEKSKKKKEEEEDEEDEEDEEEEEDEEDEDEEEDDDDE

B1: TTP4000 (Fc fusion)
chain: QNITARIGEPLVLKCKGAPKKPPQRLEWKLNTGRTEAWKVLSPQGGGPWDSVARVLPNGSLFLPAVGIQDEGIFRCQAMNRNGKETKSNYRVRVYQIPGKPEIVDSASELTAGVPNKVGTCVSEGSYPAGTLSWHLDGKPLVPNEKGVSVKEQTRRHPETGLFTLQSELMVTPARGGDPRPTFSCSFSPGLPRHRALRTAPIQPRVWEPVPLEEVQLVVEPEGGAVAPPSVFLFPPKPKDTLMISRTPEVTCVVVDVSHEDPEVKFNWYVDGVEVHNAKTKPREEQYNSTYRVVSVLTVLHQDWLNGKEYKCKVSNKALPAPIEKTISKAKGQPREPQVYTLPPSRDELTKNQVSLTCLVKGFYPSDIAVEWESNGQPENNYKTTPPVLDSDGSFFLYSKLTVDKSRWQQGNVFSCSVMHEALHNHYTQKSLSLSPGK
modifications: N-terminal residue glutamine (Q) or pyroglutamic acid (pE) or a mixture thereof; glycosylation sites at N2 and N288 (numbering of the processed protein); C-terminal residue may be cleaved off
What is called Kd is the concentration at which binding is half-saturated. The low end stands for tighter binding, the high end for weaker binding. Molecule B1 showed a Kd in experiment [1] of 75 nM.

B2: RAGE fusion protein TTP-4000 (Fc fusion)
chain: B1 chain
modifications: N-terminal residue glutamine (Q) or pyroglutamic acid (pE) or a mixture thereof; glycosylation sites at N2 and N288 (numbering of the processed protein); C-terminal residue may be cleaved off
For B2, the Kd amounted to 77 nM in experiment [2] and 40 nM in experiment [3].

The values above are taken from patent US20080199467A1 (published 2008).
